# Measured values as given in patent publication US20240101642A1 (DUKE UNIVERSITY, published 2024).
# Assays:
# [1] = target: T1, wild-type (WT) β2AR reconstituted in high-density lipoprotein particles (HDL-β2AR), non-phosphorylated (human, UniProt P07550 1-413); test: cell-based or functional assay
# [2] = target: β2AR ligated to a non-phosphorylated version of the V2R peptide, in HDL particles (β2ARnp) (human, UniProt P07550 1-365); test: cell-based or functional assay
# [3] = target: T1, wild-type (WT) β2AR reconstituted in …; test: in situ read-outs: [125I]-CYP/isoproterenol competition binding with HDL-β2AR and bimane fluorescence
# Method: Bimane-labeled β2AR or β2ARpp HDLs were incubated with or without isoproterenol for 15 min at room temperature before the addition of excess transducer. […] The reactions were equilibrated for at least 30 min in black, solid-bottom 96-well microplates before fluorescence emission spectra were collected on a CLARIOstar plate reader (BMG LABTECH) in top-read mode, with excitation at 370 nm (16 nm bandpass) and emission scanning from 400 nm to 600 nm (10 nm bandpass) in 1 nm increments. Reactions were set up in duplicate in each experiment, and wells for background subtraction contained all components except the bimane-labeled HDLs. Experiments were repeated at least three times.
# Radioligand Binding: All equilibrium competition radioligand binding studies were conducted in a final volume of 200 μL containing HDL-receptor, radioligand, a titration of unlabeled competitor, and the presence or absence of the indicated transducer protein. All components were diluted in assay buffer containing 20 mM HEPES, pH 7.4, 100 mM NaCl, and 1 mg/mL bovine serum albumin (BSA). […] Binding reactions proceeded at room temperature and were harvested onto glass-fiber filters (GFB) with 0.3% polyethyleneimine (PEI) using a 96-well Brandel harvester. Binding data were analyzed in GraphPad Prism using a sigmoidal dose-response curve fit, and differences in log IC50 values were analyzed by one-way ANOVA.
binder,measurement,setting,value
"β-arrestin1, minimal cysteine and truncated variant of rat βarr1 (βarr1-MC-393) (other, UniProt P29066 1-393, looked up, range 1-393; Expressed as GST fusion in BL21(DE3) and removed from GST by thrombin; also called βarr1-393 minimal cysteine) MGDKGTRVFKKASPNGKLTVYLGKRDFVDHIDLVDPVDGVVLVDPEYLKERRVYVTLTAAFRYGREDLDVLGLTFRKDLFVANVQSFPPAPEDKKPLTRLQERLIKKLGEHAYPFTFEIPPNLPSSVTLQPGPEDTGKAIGVDYEVKAFVAENLEEKIHKRNSVRLVIRKVQYAPERPGPQPTAETTRQFLMSDKPLHLEASLDKEIYYHGEPISVNVHVTNNTNKTVKKIKISVRQYADIVLFNTAQYKVPVAMEEADDTVAPSSTFSKVYTLTPFLANNREKRGLALDGKLKHEDTNLASSTLLREGANREILGIIVSYKVKVKLVVSRGGLLGDLASSDVAVELPFTLMHPKPKEEPPHREVPESETPVDTNLIELDTNDDDIVFEDFAR","log IC50 of isoproterenol (ISO), [125I]-CYP competition binding, in the presence of βarr1 (no transducer: -6.82+/-0.03)",[1],-6.81 log
same,"log IC50 of isoproterenol (ISO), [125I]-CYP competition binding, in the presence of βarr1 (no transducer: -6.42+/-0.09)",[2],-6.49 log
same,binding result,[3],no binding (tested: micromolar concentrations)
